Source: IntAct's records for PubMed 25910212

B1: Cyclin-dependent kinase 4 (Homo sapiens), P11802 (parent)
chain: MATSRYEPVAEIGVGAYGTVYKARDPHSGHFVALKSVRVPNGGGGGGGLPISTVREVALLRRLEAFEHPNVVRLMDVCATSRTDREIKVTLVFEHVDQDLRTYLDKAPPPGLPAETIKDLMRQFLRGLDFLHANCIVHRDLKPENILVTSGGTVKLADFGLARIYSYQMALTPVVVTLWYRAPEVLLQSTYATPVDMWSVGCIFAEMFRRKPLFCGNSEADQLGKIFDLIGLPPEDDWPRDVSLPRGAFPPRGPRPVQSVVPEMEESGAQLLLEMLTFNPHKRISAFRALQHSYLHKDEGNPE
B2: E3 ubiquitin-protein ligase TRIM32 (Homo sapiens), Q13049 (parent)
chain: MAAAAASHLNLDALREVLECPICMESFTEEQLRPKLLHCGHTICRQCLEKLLASSINGVRCPFCSKITRITSLTQLTDNLTVLKIIDTAGLSEAVGLLMCRSCGRRLPRQFCRSCGLVLCEPCREADHQPPGHCTLPVKEAAEERRRDFGEKLTRLRELMGELQRRKAALEGVSKDLQARYKAVLQEYGHEERRVQDELARSRKFFTGSLAEVEKSNSQVVEEQSYLLNIAEVQAVSRCDYFLAKIKQADVALLEETADEEEPELTASLPRELTLQDVELLKVGHVGPLQIGQAVKKPRTVNVEDSWAMEATASAASTSVTFREMDMSPEEVVASPRASPAKQRGPEAASNIQQCLFLKKMGAKGSTPGMFNLPVSLYVTSQGEVLVADRGNYRIQVFTRKGFLKEIRRSPSGIDSFVLSFLGADLPNLTPLSVAMNCQGLIGVTDSYDNSLKVYTLDGHCVACHRSQLSKPWGITALPSGQFVVTDVEGGKLWCFTVDRGSGVVKYSCLCSAVRPKFVTCDAEGTVYFTQGLGLNLENRQNEHHLEGGFSIGSVGPDGQLGRQISHFFSENEDFRCIAGMCVDARGDLIVADSSRKEILHFPKGGGYSVLIREGLTCPVGIALTPKGQLLVLDCWDHCIKIYSYHLRRYSTP
B3: Aspartoacylase (Homo sapiens), P45381 (parent)
chain: MTSCHIAEEHIQKVAIFGGTHGNELTGVFLVKHWLENGAEIQRTGLEVKPFITNPRAVKKCTRYIDCDLNRIFDLENLGKKMSEDLPYEVRRAQEINHLFGPKDSEDSYDIIFDLHNTTSNMGCTLILEDSRNNFLIQMFHYIKTSLAPLPCYVYLIEHPSLKYATTRSIAKYPVGIEVGPQPQGVLRADILDQMRKMIKHALDFIHHFNEGKEFPPCAIEVYKIIEKVDYPRDENGEIAAIIHPNLQDQDWKPLHPGDPMFLTLDGKTIPLGGDCTVYPVFVNEAAYYEKKEAFAKTTKLTLNAKSIRCCLH
B4: Keratin, type II cytoskeletal 1 (Homo sapiens), P04264 (parent)
chain: MSRQFSSRSGYRSGGGFSSGSAGIINYQRRTTSSSTRRSGGGGGRFSSCGGGGGSFGAGGGFGSRSLVNLGGSKSISISVARGGGRGSGFGGGYGGGGFGGGGFGGGGFGGGGIGGGGFGGFGSGGGGFGGGGFGGGGYGGGYGPVCPPGGIQEVTINQSLLQPLNVEIDPEIQKVKSREREQIKSLNNQFASFIDKVRFLEQQNQVLQTKWELLQQVDTSTRTHNLEPYFESFINNLRRRVDQLKSDQSRLDSELKNMQDMVEDYRNKYEDEINKRTNAENEFVTIKKDVDGAYMTKVDLQAKLDNLQQEIDFLTALYQAELSQMQTQISETNVILSMDNNRSLDLDSIIAEVKAQYEDIAQKSKAEAESLYQSKYEELQITAGRHGDSVRNSKIEISELNRVIQRLRSEIDNVKKQISNLQQSISDAEQRGENALKDAKNKLNDLEDALQQAKEDLARLLRDYQELMNTKLALDLEIATYRTLLEGEESRMSGECAPNVSVSVSTSHTTISGGGSRGGGGGGYGSGGSSYGSGGGSYGSGGGGGGGRGSYGSGGSSYGSGGGSYGSGGGGGGHGSYGSGSSSGGYRGGSGGGGGGSSGGRGSGGGSSGGSIGGRGSSSGGVKSSGGSSSVKFVSTTYSGVTR
partner: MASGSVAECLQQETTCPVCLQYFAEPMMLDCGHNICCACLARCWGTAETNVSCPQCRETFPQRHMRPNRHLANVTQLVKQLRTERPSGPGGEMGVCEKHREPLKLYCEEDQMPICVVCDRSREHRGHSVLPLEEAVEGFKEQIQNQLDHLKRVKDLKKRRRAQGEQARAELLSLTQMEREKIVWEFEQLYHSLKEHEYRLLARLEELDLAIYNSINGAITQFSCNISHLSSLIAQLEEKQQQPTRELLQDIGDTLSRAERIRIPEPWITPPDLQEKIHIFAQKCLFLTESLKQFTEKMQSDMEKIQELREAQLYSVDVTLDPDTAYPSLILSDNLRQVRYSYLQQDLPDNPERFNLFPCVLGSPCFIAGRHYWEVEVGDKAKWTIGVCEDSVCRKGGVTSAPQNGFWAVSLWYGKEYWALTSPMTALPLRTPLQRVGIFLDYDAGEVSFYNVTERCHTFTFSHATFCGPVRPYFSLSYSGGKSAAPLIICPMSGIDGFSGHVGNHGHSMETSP
B5: Keratin, type II cytoskeletal 2 epidermal (Homo sapiens), P35908 (parent)
chain: MSCQISCKSRGRGGGGGGFRGFSSGSAVVSGGSRRSTSSFSCLSRHGGGGGGFGGGGFGSRSLVGLGGTKSISISVAGGGGGFGAAGGFGGRGGGFGGGSSFGGGSGFSGGGFGGGGFGGGRFGGFGGPGGVGGLGGPGGFGPGGYPGGIHEVSVNQSLLQPLNVKVDPEIQNVKAQEREQIKTLNNKFASFIDKVRFLEQQNQVLQTKWELLQQMNVGTRPINLEPIFQGYIDSLKRYLDGLTAERTSQNSELNNMQDLVEDYKKKYEDEINKRTAAENDFVTLKKDVDNAYMIKVELQSKVDLLNQEIEFLKVLYDAEISQIHQSVTDTNVILSMDNSRNLDLDSIIAEVKAQYEEIAQRSKEEAEALYHSKYEELQVTVGRHGDSLKEIKIEISELNRVIQRLQGEIAHVKKQCKNVQDAIADAEQRGEHALKDARNKLNDLEEALQQAKEDLARLLRDYQELMNVKLALDVEIATYRKLLEGEECRMSGDLSSNVTVSVTSSTISSNVASKAAFGGSGGRGSSSGGGYSSGSSSYGSGGRQSGSRGGSGGGGSISGGGYGSGGGSGGRYGSGGGSKGGSISGGGYGSGGGKHSSGGGSRGGSSSGGGYGSGGGGSSSVKGSSGEAFGSSVTFSFR

Variants of: B1
Settings: with ccnd1_human CCND1, P24385
ccnd1_human CCND1, P24385, sequence (P24385 whole entry): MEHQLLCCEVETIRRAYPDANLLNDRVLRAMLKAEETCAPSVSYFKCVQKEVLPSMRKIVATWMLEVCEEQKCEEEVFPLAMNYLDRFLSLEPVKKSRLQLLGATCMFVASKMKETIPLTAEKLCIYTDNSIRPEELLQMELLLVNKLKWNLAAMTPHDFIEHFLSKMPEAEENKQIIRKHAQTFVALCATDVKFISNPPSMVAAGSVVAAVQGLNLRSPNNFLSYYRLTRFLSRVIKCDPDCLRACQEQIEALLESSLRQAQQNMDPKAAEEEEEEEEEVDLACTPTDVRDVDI

effect of a mutation on the interaction | Variant
with no effect | R24C
with no effect | S52N
with no effect | N41S

Variants of: B1
Settings: with ccnd3_human CCND3, P30281
ccnd3_human CCND3, P30281, sequence (P30281 whole entry): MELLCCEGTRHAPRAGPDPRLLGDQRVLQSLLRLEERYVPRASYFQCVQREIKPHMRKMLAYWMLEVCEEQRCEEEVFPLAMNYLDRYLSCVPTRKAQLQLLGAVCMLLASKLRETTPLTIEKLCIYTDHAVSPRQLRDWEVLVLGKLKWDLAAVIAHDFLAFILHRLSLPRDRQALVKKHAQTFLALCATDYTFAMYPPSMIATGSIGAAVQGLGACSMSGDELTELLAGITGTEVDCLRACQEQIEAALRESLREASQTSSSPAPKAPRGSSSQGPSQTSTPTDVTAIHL

effect of a mutation on the interaction | Variant
with no effect | R24C
with no effect | S52N
with no effect | N41S

Variants of: B1
Settings: with ccnd2_human CCND2, P30279
ccnd2_human CCND2, P30279, sequence (P30279 whole entry): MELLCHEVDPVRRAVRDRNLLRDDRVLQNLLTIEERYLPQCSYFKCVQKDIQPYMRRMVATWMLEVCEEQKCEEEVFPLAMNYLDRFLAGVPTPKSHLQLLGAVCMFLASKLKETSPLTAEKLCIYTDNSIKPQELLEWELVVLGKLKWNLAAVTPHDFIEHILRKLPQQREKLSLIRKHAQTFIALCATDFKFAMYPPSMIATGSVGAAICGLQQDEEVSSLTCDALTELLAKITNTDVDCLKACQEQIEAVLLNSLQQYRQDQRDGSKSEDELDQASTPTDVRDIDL

effect of a mutation on the interaction | Variant
with no effect | R24C
with no effect | S52N
with no effect | N41S

Variants of: B1
Settings: with cdn2b_human CDKN2B

effect of a mutation on the interaction | Variant
with no effect | R24C
with no effect | S52N
with no effect | N41S

Variants of: B1
Settings: with cdn2c_human CDKN2C

effect of a mutation on the interaction | Variant
disrupting interaction strength | R24C
with no effect | S52N
with no effect | N41S

Variants of: B1
Settings: with ccnd2_human CCND2, P30279
Remark: another data set of the same source

effect of a mutation on the interaction | Variant
disrupting interaction strength | R24C

Variants of: B2
Settings: with PDE9A

effect of a mutation on the interaction | Variant
disrupting interaction strength | R394H
with no effect | P130S
disrupting interaction strength | D487N

Variants of: B2
Settings: with praf1_human RABAC1, Q9UI14
praf1_human RABAC1, Q9UI14, sequence (Q9UI14 whole entry): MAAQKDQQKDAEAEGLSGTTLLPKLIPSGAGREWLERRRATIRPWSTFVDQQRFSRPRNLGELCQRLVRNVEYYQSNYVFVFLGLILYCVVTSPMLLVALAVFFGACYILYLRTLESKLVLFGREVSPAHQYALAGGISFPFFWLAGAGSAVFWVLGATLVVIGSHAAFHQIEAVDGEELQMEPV

effect of a mutation on the interaction | Variant
disrupting interaction strength | R394H
with no effect | P130S
disrupting interaction strength | D487N

Variants of: B2
Settings: with ABI2, Q9NYB9-2
ABI2, Q9NYB9-2, sequence (Q9NYB9 other isoform, or with tags, fused parts or gaps): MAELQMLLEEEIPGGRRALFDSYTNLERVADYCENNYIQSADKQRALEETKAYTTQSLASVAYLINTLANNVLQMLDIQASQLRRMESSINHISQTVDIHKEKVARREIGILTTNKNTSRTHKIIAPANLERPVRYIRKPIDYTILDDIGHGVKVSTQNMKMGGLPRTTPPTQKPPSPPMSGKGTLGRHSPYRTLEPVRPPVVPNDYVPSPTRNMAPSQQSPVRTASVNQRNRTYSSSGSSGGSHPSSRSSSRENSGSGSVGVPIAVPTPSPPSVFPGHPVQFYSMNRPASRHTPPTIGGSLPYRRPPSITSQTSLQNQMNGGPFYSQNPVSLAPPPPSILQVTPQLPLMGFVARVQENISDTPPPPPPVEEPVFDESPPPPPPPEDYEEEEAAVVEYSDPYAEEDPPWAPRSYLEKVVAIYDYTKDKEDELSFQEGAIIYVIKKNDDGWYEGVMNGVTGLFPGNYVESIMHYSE

effect of a mutation on the interaction | Variant
disrupting interaction strength | R394H
with no effect | P130S
disrupting interaction strength | D487N

Variants of: B2
Settings: with PDE9A
Remark: another data set of the same source

effect of a mutation on the interaction | Variant
with no effect | R394H

Variants of: B3
Settings: with keap1_human KEAP1, Q14145
keap1_human KEAP1, Q14145, sequence (Q14145 whole entry): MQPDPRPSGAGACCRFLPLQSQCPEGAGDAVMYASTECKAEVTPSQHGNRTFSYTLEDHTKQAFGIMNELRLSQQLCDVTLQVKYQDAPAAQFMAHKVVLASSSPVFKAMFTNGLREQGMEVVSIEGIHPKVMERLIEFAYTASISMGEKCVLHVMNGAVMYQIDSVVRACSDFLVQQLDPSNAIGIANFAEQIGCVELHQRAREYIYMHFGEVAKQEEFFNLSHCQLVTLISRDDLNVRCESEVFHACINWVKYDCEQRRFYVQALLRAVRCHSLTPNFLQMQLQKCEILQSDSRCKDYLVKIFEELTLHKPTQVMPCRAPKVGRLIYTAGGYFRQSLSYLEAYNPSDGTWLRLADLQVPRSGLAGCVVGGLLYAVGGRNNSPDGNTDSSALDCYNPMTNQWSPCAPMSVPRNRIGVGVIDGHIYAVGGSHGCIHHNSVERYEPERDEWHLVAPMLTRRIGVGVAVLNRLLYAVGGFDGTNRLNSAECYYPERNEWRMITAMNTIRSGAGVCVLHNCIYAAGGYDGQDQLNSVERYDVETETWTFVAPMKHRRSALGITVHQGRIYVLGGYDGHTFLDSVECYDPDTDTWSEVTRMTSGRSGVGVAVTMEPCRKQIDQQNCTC

effect of a mutation on the interaction | Variant
with no effect | M195R
with no effect | E24G
disrupting interaction strength | E285A

Variants of: B3
Settings: with keap1_human KEAP1, Q14145
Remark: another data set of the same source

effect of a mutation on the interaction | Variant
causing an interaction | M195R
causing an interaction | E24G
causing an interaction | E285A

Variants of: B4
Settings: with tri27_human TRIM27, P14373

effect of a mutation on the interaction | Variant
causing an interaction | L161P

Variants of: B5
Settings: with KRT15, P19012
KRT15, P19012, sequence (P19012 whole entry): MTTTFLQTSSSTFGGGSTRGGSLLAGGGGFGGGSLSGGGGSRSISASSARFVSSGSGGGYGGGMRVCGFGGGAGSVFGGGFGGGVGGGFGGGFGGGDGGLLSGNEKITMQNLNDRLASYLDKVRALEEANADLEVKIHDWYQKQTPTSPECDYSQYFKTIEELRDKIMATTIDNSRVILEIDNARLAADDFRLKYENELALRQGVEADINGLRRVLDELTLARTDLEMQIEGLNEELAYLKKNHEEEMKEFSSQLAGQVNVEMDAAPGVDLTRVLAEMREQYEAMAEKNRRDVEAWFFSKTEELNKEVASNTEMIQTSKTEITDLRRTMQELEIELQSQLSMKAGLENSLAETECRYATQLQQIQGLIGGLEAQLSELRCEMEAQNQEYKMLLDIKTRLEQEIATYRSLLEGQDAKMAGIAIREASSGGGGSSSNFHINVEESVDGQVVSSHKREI

effect of a mutation on the interaction | Variant
with no effect | I477N
with no effect | L484P
with no effect | N186K

Variants of: B5
Settings: with KRT40, Q6A162
KRT40, Q6A162, sequence (Q6A162 whole entry): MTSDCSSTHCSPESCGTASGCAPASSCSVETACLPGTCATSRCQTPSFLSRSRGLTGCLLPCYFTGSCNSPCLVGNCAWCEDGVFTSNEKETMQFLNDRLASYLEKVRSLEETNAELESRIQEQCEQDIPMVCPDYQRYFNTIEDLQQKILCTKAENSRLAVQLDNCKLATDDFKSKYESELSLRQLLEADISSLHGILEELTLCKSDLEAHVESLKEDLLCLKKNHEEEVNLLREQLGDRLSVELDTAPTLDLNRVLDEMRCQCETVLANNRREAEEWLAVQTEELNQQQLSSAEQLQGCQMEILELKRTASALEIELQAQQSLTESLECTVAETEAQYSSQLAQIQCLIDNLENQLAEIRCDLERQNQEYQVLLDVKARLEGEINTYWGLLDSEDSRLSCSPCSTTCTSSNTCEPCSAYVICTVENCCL

effect of a mutation on the interaction | Variant
disrupting interaction strength | I477N
with no effect | L484P
with no effect | N186K

Variants of: B5
Settings: with k1h1_human KRT31, Q15323
k1h1_human KRT31, Q15323, sequence (Q15323 whole entry): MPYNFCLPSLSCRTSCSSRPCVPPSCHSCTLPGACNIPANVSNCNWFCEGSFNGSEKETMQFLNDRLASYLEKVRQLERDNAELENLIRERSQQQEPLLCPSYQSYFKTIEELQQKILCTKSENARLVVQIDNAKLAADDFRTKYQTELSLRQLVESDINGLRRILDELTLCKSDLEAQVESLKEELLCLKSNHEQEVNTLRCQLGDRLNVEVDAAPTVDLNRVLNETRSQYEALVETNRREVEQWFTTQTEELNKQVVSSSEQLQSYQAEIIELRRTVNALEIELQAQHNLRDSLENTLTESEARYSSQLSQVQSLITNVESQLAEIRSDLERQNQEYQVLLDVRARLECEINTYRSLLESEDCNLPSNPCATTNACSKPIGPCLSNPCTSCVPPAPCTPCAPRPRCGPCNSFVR

effect of a mutation on the interaction | Variant
disrupting interaction strength | I477N
disrupting interaction strength | L484P
with no effect | N186K

Variants of: B5
Settings: with KRT19, P08727
KRT19, P08727, sequence (P08727 whole entry): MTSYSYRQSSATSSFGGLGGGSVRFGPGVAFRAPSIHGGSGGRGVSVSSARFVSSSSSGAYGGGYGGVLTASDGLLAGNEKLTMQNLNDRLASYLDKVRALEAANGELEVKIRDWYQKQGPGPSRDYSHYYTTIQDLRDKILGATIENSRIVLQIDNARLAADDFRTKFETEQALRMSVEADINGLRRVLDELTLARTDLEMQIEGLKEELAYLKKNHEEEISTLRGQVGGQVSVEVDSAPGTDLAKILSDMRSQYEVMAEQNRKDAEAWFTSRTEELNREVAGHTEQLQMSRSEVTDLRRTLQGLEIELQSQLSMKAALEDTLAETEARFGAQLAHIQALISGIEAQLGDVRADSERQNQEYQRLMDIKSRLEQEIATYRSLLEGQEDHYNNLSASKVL

Variant | effect of a mutation on the interaction
G219D | with no effect
N186K | with no effect

Second part, the variant after the results:

effect of a mutation on the interaction | Variant
disrupting interaction strength | I477N
with no effect | L484P

Variants of: B5
Settings: with k1h1_human KRT31, Q15323
Remark: another data set of the same source

effect of a mutation on the interaction | Variant
with no effect | I477N
with no effect | L484P
with no effect | G219D

Variants of: B5
Settings: with KRT40, Q6A162
Remark: another data set of the same source

effect of a mutation on the interaction | Variant
disrupting interaction strength | L484P
with no effect | G219D

Variants of: B5
Settings: with KRT15, P19012
Remark: another data set of the same source

effect of a mutation on the interaction | Variant
with no effect | G219D
